According to US20230124851A1 (INHIBRX LNC, published 2023):
Numbering of substitutions follows the chain as printed. Each block holds one binder with its values, some of them ahead of it.

Legend:
[1] = target: T1, human B7H3 (CD276) on the cell surface (human, UniProt Q5ZPR3 29-534); experiment: flow cytometry on A375 cells (B7H3+), anti-human Fc secondary
T1 construct: B7H3 on A375 and other B7H3-positive or transfected cells
T1 sequence: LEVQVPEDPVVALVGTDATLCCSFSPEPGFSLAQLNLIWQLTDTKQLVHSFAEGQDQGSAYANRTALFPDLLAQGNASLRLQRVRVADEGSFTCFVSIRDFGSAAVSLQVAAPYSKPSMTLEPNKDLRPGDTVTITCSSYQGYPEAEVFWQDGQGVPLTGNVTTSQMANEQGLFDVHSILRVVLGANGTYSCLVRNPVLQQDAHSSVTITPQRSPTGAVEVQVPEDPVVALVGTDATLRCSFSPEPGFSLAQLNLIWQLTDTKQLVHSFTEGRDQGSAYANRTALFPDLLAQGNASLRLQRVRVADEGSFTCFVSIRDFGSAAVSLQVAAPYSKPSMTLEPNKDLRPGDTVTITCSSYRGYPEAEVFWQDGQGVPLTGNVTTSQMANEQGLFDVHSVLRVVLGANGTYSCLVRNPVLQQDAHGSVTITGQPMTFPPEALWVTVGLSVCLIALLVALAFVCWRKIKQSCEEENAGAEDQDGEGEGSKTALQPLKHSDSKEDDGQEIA
Procedure: (§1) Binding of exemplary multispecific constructs containing an antigen-binding domain directed against B7H3 were assessed for binding to B7H3 positive A375 tumor cells or primary T-cells. The constructs were generated containing antigen-binding domain(s) that were either sdAbs or a FABs, and that were positioned either only N-terminal to the Fc or both N-terminal to the Fc and C-terminal to the anti-CD3 binding domain (see FIGS. 30A and 30C and Table E5). Among the various formats of constructs tested included: sdAb-Fc-dsFV-sdAb (cx3072, cx5952) sdAb-Fc-FV (cx6079), sdAb-Fc-dsFV (cs6080, cx6081), MAB-FV (cx5067) and MAB-dsFV (cx6083, cx6084), where the FV represents the anti-CD3 binding domain composed of VH and VL domain pairs and “ds” notes disulfide stabilized via an engineered interdomain disulfide bond.
(§2) Binding was assessed as described above via flow cytometry using a fluorophore-conjugated anti-human Fc secondary antibody. cx3072 bound to A375 cells with high affinity (FIG. 31A) but not to isolated T-cells (FIG. 31B). […] The B7H3 -targeting sdAb containing constructs (cx5952, cx6079, cx6080, and cx6081) bound to B7H3 positive cells with similar affinities (depicted in FIG. 31E), with cx5952 displaying higher maximal binding. cx6079, cx6080 and cx6081 contain two identical B7H3-targeting sdAbs, whereas cx5952, and cx3072 contain two distinct B7H3-targeting sdAb that bind different epitopes. The MAB-FV, cx5067, contains two identical B7H3-targeting FAB domains.

[2] = target: T2, CD3 on the surface of human T cells (human, UniProt P07766 23-207); experiment: flow cytometry on primary human T cells, anti-human Fc secondary
T2 construct: whole, on cells; Part of the CD3/TCR complex on cells; also called CD3 epsilon
T2 sequence (P07766 23-207): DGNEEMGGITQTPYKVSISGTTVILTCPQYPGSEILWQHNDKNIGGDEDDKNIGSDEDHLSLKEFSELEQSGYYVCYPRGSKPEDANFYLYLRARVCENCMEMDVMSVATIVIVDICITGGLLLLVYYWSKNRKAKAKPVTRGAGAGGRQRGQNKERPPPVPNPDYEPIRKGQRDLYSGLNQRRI
Procedure: as §1, §2

binding result [1]: binds | binding result [2]: no binding
B1: cx6083 (bispecific antibody)
chain 1: EVQLVESGGGLVQPGGSLRLSCAASGFTFSSFGMHWVRQAPGKGLEWVAYISSDSSAIYYADTVKGRFTISRDNAKNSLYLQMNSLRDEDTAVYYCGRGRENIYYGSRLDYWGQGTTVTVSSASTKGPSVFPLAPSSKSTSGGTAALGCLVKDYFPEPVTVSWNSGALTSGVHTFPAVLQSSGLYSLSSVVTVPSSSLGTQTYICNVNHKPSNTKVDKKVEPKSCDKTHTCPPCPAPPVAGPSVFLFPPKPKDTLMISRTPEVTCVVVDVKHEDPEVKFNWYVDGVEVHNAKTKPREEEYNSTYRVVSVLTVLHQDWLNGKEYKCKVSNKALPAPIEKTISKAKGQPREPQVYTLPPSREEMTKNQVSLTCDVSGFYPSDIAVEWESDGQPENNYKTTPPVLDSDGSFFLYSKLTVDKSRWEQGDVFSCSVMHEALHNHYTQKSLSLSPGKGGGGSGGGGSGGGGSEVQLVESGGGLVQPGGSLRLSCAASGFTFSTYAMNWVRQAPGKCLEWVGRIRSKYNNYATYYADSVKGRFTISRDDSKNTLYLQMNSLRAEDTAVYYCVRHGNFGDSYVSWFAYWGQGTLVTVSS
chain 2: EVQLVESGGGLVQPGGSLRLSCAASGFTFSSFGMHWVRQAPGKGLEWVAYISSDSSAIYYADTVKGRFTISRDNAKNSLYLQMNSLRDEDTAVYYCGRGRENIYYGSRLDYWGQGTTVTVSSASTKGPSVFPLAPSSKSTSGGTAALGCLVKDYFPEPVTVSWNSGALTSGVHTFPAVLQSSGLYSLSSVVTVPSSSLGTQTYICNVNHKPSNTKVDKKVEPKSCDKTHTCPPCPAPPVAGPSVFLFPPKPKDTLMISRTPEVTCVVVDVKHEDPEVKFNWYVDGVEVHNAKTKPREEQYNSTYRVVSVLTVLHQDWLNGKEYKCKVSNKALPAPIEKTISKAKGQPREPQVYTLPPSREQMTKNQVKLTCLVKGFYPSDIAVEWESNGQPENNYKTTPPVLDSDGSFFLYSKLTVDKSRWQQGNVFSCSVMHEALHNHYTQKSLSLSPGKGGGGSGGGGSGGGGSQAVVTQEPSLTVSPGGTVTLTCGSSTGAVTTSNYANWVQQKPGKSPRGLIGGTNKRAPGVPARFSGSLLGGKAALTISGAQPEDEADYYCALWYSNHWVFGCGTKLTVL
light: DIQLTQSPSFLSASVGDRVTITCKASQNVDTNVAWYQQKPGKAPKALIYSASYRYSGVPSRFSGSGSGTDFTLTISSLQPEDFATYYCQQYNNYPFTFGQGTKLEIKRTVAAPSVFIFPPSDEQLKSGTASVVCLLNNFYPREAKVQWKVDNALQSGNSQESVTEQDSKDSTYSLSSTLTLSKADYEKHKVYACEVTHQGLSSPVTKSFNRGEC
notes: disulfide-stabilized anti-CD3 Fv; also called MAB-dsFV

binding result [1]: binds | binding result [2]: no binding
B2: cx6084 (bispecific antibody, human IgG1, kappa)
chain 1: B1 chain 1 with S496N, G515A, S543A, N552S, D572N, S590K, S591P
chain 2: B1 chain 2 with K510Q, S511A, P512F, T573E, V574I, L575K
light: B1 light
notes: as for B1
